Experimental data as given in patent US20200024330A1.

Columns and labels:
Assay in all cases: cell-based or functional assay
[1] = molecular target: HIV-1 Env of isolate MGRM-G-004 (subtype G) (HIV-1)
[2] = molecular target: HIV-1 Env of isolate MGRM-G-001 (subtype G) (HIV-1)
[3] = molecular target: HIV-1 Env of isolate MGRM-G-017 (subtype G) (HIV-1)
[4] = molecular target: HIV-1 Env of isolate MGRM-G-024 (subtype G) (HIV-1)
[5] = molecular target: HIV-1 Env of isolate MG RM-D-004 (subtype D) (HIV-1)
[6] = molecular target: HIV-1 Env of isolate 92UG114 (subtype D) (HIV-1)
[7] = molecular target: HIV-1 THR0.18 Env (pseudovirus) (HIV-1)
[8] = molecular target: HIV-1 Env of isolate MG RM-D-011 (subtype D) (HIV-1)
[9] = molecular target: HIV-1 PVO.4 Env (pseudovirus) (HIV-1)
[10] = molecular target: HIV-1 Env of isolate MGRM-C-006 (pseudovirus) (HIV-1 isolate MGRM-C-006, subtype C)
[11] = molecular target: HIV-1 JR-CSF Env I165A (HIV-1 (isolate JR-CSF)) (UniProt P20871)
[12] = molecular target: HIV-1 MGRM-Chronic-B-024 Env (pseudovirus) (HIV-1)
[13] = molecular target: HIV-1 TRJ04551.58 Env (pseudovirus) (HIV-1)
[14] = molecular target: HIV-1 JR-CSF Env N188A (HIV-1 (isolate JR-CSF)) (UniProt P20871)
[15] = molecular target: HIV-1 MGRM-Chronic-B-008 Env (pseudovirus) (HIV-1)
[16] = molecular target: HIV-1 Env of isolate MGRM-Chronic-B-008 (HIV-1)
[17] = molecular target: HIV-1 Env of isolate VLGCB3 (HIV-1)
[18] = molecular target: HIV-1 Env of isolate MGRM-AE-003 (HIV-1)
[19] = molecular target: HIV-1 Env of isolate MGRM-D-001 (HIV-1)
[20] = molecular target: HIV-1 Env of isolate MGRM-F1-015 (subtype F), on pseudovirus (HIV-1)
[21] = molecular target: HIV-1 Env of isolate APV-13 (pseudovirus) (HIV-1 isolate APV-13, subtype B)
[22] = molecular target: HIV-1 Env of isolate CMU02 (CRF01_AE), on pseudovirus (HIV-1)
[23] = molecular target: HIV-1 Env of isolate MGRM-F1-014 (subtype F), on pseudovirus (HIV-1)
[24] = molecular target: HIV-1 Env of isolate MGRM-F1-006 (subtype F), on pseudovirus (HIV-1)
[25] = molecular target: HIV-1 Env of isolate MGRM-C-025 (HIV-1)
[26] = molecular target: HIV-1 Env of isolate MGRM-C-027 (HIV-1)
[27] = molecular target: HIV-1 Env of isolate MGRM-F1-013 (subtype F), on pseudovirus (HIV-1)
[28] = molecular target: HIV-1 MGRM-F1-012 Env (pseudovirus) (HIV-1)
[29] = molecular target: HIV-1 MGRM-C-014 Env (HIV-1)
[30] = molecular target: HIV-1 Env of isolate MGRM-G-016 (clade G pseudovirus) (HIV-1)
[31] = molecular target: HIV-1 Env of isolate MGRM-D-026 (clade D) (HIV-1)
[32] = molecular target: HIV-1 JRCSF envelope glycoprotein (Env) on pseudovirus (HIV-1) (UniProt P20871)
[33] = molecular target: HIV-1 Env of pseudovirus THR0.18 (Acute), clade B (HIV-1)
[34] = molecular target: HIV-1 LAVI_C3 Env (HIV-1)
[35] = molecular target: HIV-1 MGRM-C-022 Env (HIV-1)
[36] = molecular target: HIV-1 MGRM-C-028 envelope glycoprotein (Env) on pseudovirus (HIV-1)
[37] = molecular target: HIV-1 Env of pseudovirus MGRM-Chronic-B-008, clade B (HIV-1)
[38] = molecular target: HIV-1 92UG005 envelope glycoprotein (Env) on pseudovirus (HIV-1)

PGT-144 (4970_K22) (antibody), sequence (VH): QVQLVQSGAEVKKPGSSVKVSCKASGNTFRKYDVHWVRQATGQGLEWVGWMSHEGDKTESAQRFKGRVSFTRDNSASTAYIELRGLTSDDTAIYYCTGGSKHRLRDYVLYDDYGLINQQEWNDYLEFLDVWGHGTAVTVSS
PGT-144 (4970_K22) (antibody), sequence (VL): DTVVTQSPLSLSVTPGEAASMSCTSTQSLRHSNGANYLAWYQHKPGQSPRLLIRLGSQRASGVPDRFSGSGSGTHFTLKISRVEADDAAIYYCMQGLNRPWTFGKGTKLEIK
PGT-143 (4980_N08) (antibody), sequence (VH): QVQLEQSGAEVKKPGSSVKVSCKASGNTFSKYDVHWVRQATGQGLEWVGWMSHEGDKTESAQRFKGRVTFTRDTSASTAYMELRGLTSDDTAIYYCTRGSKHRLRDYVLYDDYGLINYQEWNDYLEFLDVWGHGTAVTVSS
PGT-143 (4980_N08) (antibody), sequence (VL): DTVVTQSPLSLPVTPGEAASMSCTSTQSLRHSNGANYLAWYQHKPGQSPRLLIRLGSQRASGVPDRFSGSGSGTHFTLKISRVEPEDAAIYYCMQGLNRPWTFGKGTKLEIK

PGT-143 (4980_N08) (antibody) showed a neutralization IC50 [1] greater than 50 mg/L, a neutralization IC50 [2] of 0.423 mg/L and a neutralization IC50 [3] of 0.107 mg/L. The neutralization IC50 [4] was 0.048 mg/L.
Substance 5145_B14 (PGT-127) (antibody) has an IC50 (µg/mL), pseudovirus neutralization [5] greater than 50 µg/mL, an IC50 (µg/mL), pseudovirus neutralization [6] of 7.09 µg/mL and an IC50, pseudovirus neutralization [7] greater than 50 mg/L. The IC50 (µg/mL), pseudovirus neutralization [8] was 0.015 µg/mL, the IC50, pseudovirus neutralization [9] was 0.164 mg/L and the IC50 (µg/mL) neutralization [10] was 0.319 µg/mL. For the same substance, the Fold IC50 increase relative to wild-type [11] was 1.7 fold, the IC50, pseudovirus neutralization [12] was greater than 50 mg/L and the IC50, pseudovirus neutralization [13] was 0.063 mg/L. It also gave a Fold IC50 increase relative to wild-type [14] of 0.8 fold and an IC50, pseudovirus neutralization [15] of 21.5 mg/L.
VRC01 (antibody) gave an IC50 [16] of 0.155 mg/L, a neutralization IC50 [1] greater than 50 mg/L and a neutralization IC50 [2] of 0.0371 mg/L. The neutralization IC50 [17] was 0.108 mg/L, the neutralization IC50 [3] was 0.124 mg/L and the neutralization IC50 [4] was 0.025 mg/L.
With PGV04 (antibody) the neutralization IC50 [1] was greater than 50 mg/L, the IC50 (µg/mL), pseudovirus neutralization [18] was 6.4 µg/mL and the neutralization IC50 [2] was greater than 50 mg/L. It also gave a neutralization IC50 [3] of 0.065 mg/L, an IC50 (µg/mL), pseudovirus neutralization [19] greater than 50 µg/mL and a neutralization IC50 [4] of 0.033 mg/L.
5114_A19 (PGT-128) (antibody) was tested, and the IC50 [16] was 0.143 mg/L, the IC50, pseudovirus neutralization [20] was greater than 50 mg/L and the IC50 (µg/mL) neutralization [21] was 0.008 µg/mL. For the same substance, the IC50 [17] was 0.012 mg/L, the IC50, single-round pseudovirus neutralization [22] was greater than 50 mg/L and the IC50, pseudovirus neutralization [23] was 0.277 mg/L. For the same substance, the IC50 [19] was 0.138 mg/L, the Fold IC50 increase relative to wild-type [11] was 2.1 fold and the Fold IC50 increase relative to wild-type [14] was 1.3 fold. The IC50, pseudovirus neutralization [24] was 0.763 mg/L, the IC50 [25] was 10.5 mg/L and the IC50 [26] was 0.081 mg/L. For the same substance, the IC50, pseudovirus neutralization [27] was 12.7 mg/L.
PGT-144 (4970_K22) (antibody) gave a neutralization IC50 [1] greater than 50 mg/L, a neutralization IC50 [2] greater than 50 mg/L and a neutralization IC50 [3] of 9.97 mg/L. For the same substance, the neutralization IC50 [4] was 7.92 mg/L.
1496_C09 (PG9) (TCN-109) (antibody) was tested, and the IC50 (µg/mL), pseudovirus neutralization [18] was 0.044 µg/mL, the IC50 (µg/ml), pseudovirus neutralization [28] was 0.01 µg/mL and the neutralization IC50 [2] was 0.166 mg/L. The IC50 [29] was 0.64 mg/L, the IC50 (µg/ml), pseudovirus neutralization [30] was 0.4 µg/mL and the IC50 (µg/ml), pseudovirus neutralization [31] was 17.5 µg/mL. The IC50 (ug/ml), neutralizing activity [32] was 0.0048 µg/mL, the IC50 neutralization [32] was 0.0048 mg/L and the IC80, neutralization [32] was 0.0181 mg/L. The IC90, neutralization [32] was 0.0391 mg/L, the IC95, neutralization [32] was 0.0798 mg/L and the neutralization IC50 [3] was 0.104 mg/L. It also gave an IC50 (µg/ml), pseudovirus neutralization [33] of 12.4 µg/mL, an IC50 [34] of 1.45 mg/L and a neutralization IC50 [4] of 0.163 mg/L. It also gave an IC50 [35] of 0.19 mg/L, an IC50 (ug/ml), neutralizing activity [36] of 0.121 µg/mL and an IC50 neutralization [36] of 0.121 mg/L. It also gave an IC80, neutralization [36] of 0.645 mg/L, an IC90, neutralization [36] of 1.65 mg/L and an IC95, neutralization [36] of 3.71 mg/L. The IC50 (µg/ml), pseudovirus neutralization [37] was 6.66 µg/mL.
In the case of 4858_P08 (PGT-123) (antibody), the IC50 (µg/mL), pseudovirus neutralization [5] is reported as greater than 50 µg/mL, the IC50 (µg/mL), pseudovirus neutralization [6] is reported as 0.005 µg/mL and the IC50, pseudovirus neutralization [7] is reported as greater than 50 mg/L. It also gave an IC50 (µg/mL), pseudovirus neutralization [8] of 0.012 µg/mL, an IC50, pseudovirus neutralization [9] of 0.105 mg/L and an IC50 (ug/ml), neutralizing activity [32] of 0.0423 µg/mL. For the same substance, the IC50, pseudovirus neutralization [32] was 0.0423 mg/L, the IC80, pseudovirus neutralization [32] was 0.143 mg/L and the IC90 (pseudovirus neutralization) [32] was 0.289 mg/L. The IC95, pseudovirus neutralization [32] was 0.547 mg/L, the IC50 (µg/mL) neutralization [10] was 0.021 µg/mL and the Fold IC50 increase relative to wild-type [11] was 2.2 fold. For the same substance, the IC50, pseudovirus neutralization [12] was greater than 50 mg/L, the IC50, pseudovirus neutralization [13] was 16.9 mg/L and the Fold IC50 increase relative to wild-type [14] was 1.1 fold. For the same substance, the IC50, pseudovirus neutralization [15] was 0.01 mg/L, the IC50 (ug/ml), neutralizing activity [36] was 0.443 µg/mL and the IC50, pseudovirus neutralization [36] was 0.443 mg/L. For the same substance, the IC80, pseudovirus neutralization [36] was 2.8 mg/L, the IC90 (pseudovirus neutralization) [36] was 7.11 mg/L and the IC95, pseudovirus neutralization [36] was greater than 10 mg/L. For the same substance, the IC50 (ug/ml), neutralizing activity [38] was 2.49 µg/mL, the IC50, pseudovirus neutralization [38] was 2.49 mg/L and the IC80, pseudovirus neutralization [38] was greater than 10 mg/L. It also gave an IC90 (pseudovirus neutralization) [38] greater than 10 mg/L and an IC95, pseudovirus neutralization [38] greater than 10 mg/L.
For PGT-121 (antibody), the IC50 (µg/mL), pseudovirus neutralization [18] was greater than 50 µg/mL.
